Measured values reported in US6413730.

Target: T1, GST-hElk-L cytoplasmic domain fusion protein (GST-Elk-L cyt) (UniProt P98172)
T1 sequence: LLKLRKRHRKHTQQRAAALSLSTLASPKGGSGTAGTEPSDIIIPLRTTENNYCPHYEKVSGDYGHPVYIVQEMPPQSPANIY

## v-Src
  in vitro kinase assay with 32P-gamma-ATP, autoradiography: A GST fusion protein containing the cytoplasmic domain of human Elk-L (residues 262-343) was tyrosine phosphorylated by v-Src in vitro
